Experimental data published in publication doi:10.1101/2020.10.08.20209114 (medRxiv, 2020).

B1: monoclonal antibody 7F3 (antibody, V domains shown)
VH: EVQLVESGGGLVKPGRSLRLSCTASGFTFGDYAMSWFRQAPGKGLEWVGFIRSKAYGGTTEYAASVKGRFTISRDDSKSIAYLQMNSLKTEDTAVYYCTRDRYARYDILTGLSPAGADYFYYAMDVWGQGTTVTVSS
VL: EIVLTQSPATLSLSPGERATLSCRASQSVSSYLAWYQQKPGQAPRLLIYDASNRATGIPARFSGSGSGTDFTLTISSLEPEDFAVYYCQQRSNWPQYTFGQGTKLEIK
B2: monoclonal antibody 4L12 (antibody, V domains shown)
VH: EVQLVESGGGLVQPGGSLRLSCAASGITVSSNYMNWVRQAPGRGLEWVSLLYSGGSTYYADSVKGRFTISRDNSKNTLYLQMNSLRAEDTAVYYCARDLITYGMDVWGQGTTVTVSS
VL: AIQLTQSPSSLSASVGDRVTITCRASQGISSYLAWYQQKPGKAPKLLIYAASTLQSGVPSRFSGSGSGTDFTLTISSLQPEDFATYYCQQLNSYPPLTFGGGTKVEIK

Molecular target: SARS-CoV-2 RBD protein (SARS-CoV-2 (Wuhan-Hu-1, NC_045512), UniProt P0DTC2)
Test: BLI

Binder	Kd
B1	0.69 ± 0.03 nM
B2	1.49 ± 0.06 nM
